Test results reported in article PMC10598736, “Structural insights into Rad18 targeting by the SLF1 BRCT domains” (The Journal of Biological Chemistry, 2023).
Where a chain is given by its changes, count along the chain named. Names and notes keep the numbering of the source. Square brackets hold non-standard residues; d marks the D form. Ends that are not written are not given here. Peptide text beside a SMILES is read from it. pS = N[C@@H](COP(=O)(O)O)C(=O)O

Key:
[1] = target: T1, SLF1^tBRCT (residues 1–199), WT (Homo sapiens, UniProt Q9BQI6); experiment: ITC of peptide binding to wild-type SLF1 tBRCT; conditions: 25 °C, 20 mM Tris pH 7.5, 200 mM NaCl; for Kd: 1.3 mM Rad18 peptide into 0.1 mM protein (BRCTide 6 mM into 0.2 mM), average ± SD of three independent repeats, ND = not detected
T1 construct: The coding region for SLF1^tBRCT (residues 1–199) was optimized for expression in E. coli; made in house; host or cells: E. coli BL21 Rosetta (DE3)
T1 sequence (Q9BQI6 1-199): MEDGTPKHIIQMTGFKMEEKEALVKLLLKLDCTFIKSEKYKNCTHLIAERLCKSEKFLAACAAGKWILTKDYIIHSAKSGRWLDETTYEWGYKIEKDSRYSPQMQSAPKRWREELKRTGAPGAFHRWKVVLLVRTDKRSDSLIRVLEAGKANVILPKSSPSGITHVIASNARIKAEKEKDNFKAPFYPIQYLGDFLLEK
Description: ITC experiments were carried out on a MicroCal ITC 200 instrument (Malvern) at 25 °C. Prior to the ITC experiments, SLF1^tBRCT was exchanged into a buffer containing 20 mM Tris (pH 7.5) and 200 mM sodium chloride and peptides (Sangon Biotech, Scilight biotechnology, Hefei Scierbio-Tech, Synpeptide) were dissolved in the same buffer. To characterize binding, a solution containing 1.3 mM Rad18 peptide or 6 mM BRCTide was injected into a 300-μl cell that stores 0.1 mM (for binding experiments with Rad18 peptides) or 0.2 mM (for the binding experiment with BRCTide) SLF1^tBRCT, 2 μl at a time. Data were analyzed with ORIGIN 7.0 (Originlab).

[2] = target: SLF1 tandem BRCT repeat (SLF1^tBRCT), residues 1-199, wild type (UniProt Q9BQI6); experiment: ITC; MicroCal ITC 200, 25 °C, 20 mM Tris (pH 7.5), 200 mM sodium chloride; 1.3 mM Rad18 peptide or 6 mM BRCTide injected into 0.1 mM (Rad18 peptides) or 0.2 mM (BRCTide) SLF1^tBRCT in the cell; three independent repeats
[3] = target: T2, SLF1^tBRCT L142A (UniProt Q9BQI6 1-199, L142A); experiment: as above; conditions: both partners purified
T2 construct: SMC5/6 localization factor 1 (SLF1), tandem BRCT repeat, residues 1-199, with L142A; source: E. coli BL21 Rosetta (DE3), purified (same protocol as the wild type)
T2 sequence (looked up): T1 sequence (Q9BQI6 1-199) with L142A

[4] = target: T3, SLF1^tBRCT K56A (UniProt Q9BQI6 1-199, K56A); experiment: as above; conditions: both partners purified
T3 construct: SMC5/6 localization factor 1 (SLF1), tandem BRCT repeat, residues 1-199, with K56A; also called K56A-substituted SLF1^tBRCT; source: E. coli BL21 Rosetta (DE3), purified (same protocol as the wild type)
T3 sequence (looked up): T1 sequence (Q9BQI6 1-199) with K56A

[5] = target: T4, SLF1^tBRCT I189A (UniProt Q9BQI6 1-199, I189A); experiment: as above; conditions: both partners purified
T4 construct: SMC5/6 localization factor 1 (SLF1), tandem BRCT repeat, residues 1-199, with I189A; source: E. coli BL21 Rosetta (DE3), purified (same protocol as the wild type)
T4 sequence (looked up): T1 sequence (Q9BQI6 1-199) with I189A

[6] = target: T5, SLF1^tBRCT R50A (UniProt Q9BQI6 1-199, R50A); experiment: as above; conditions: both partners purified
T5 construct: SMC5/6 localization factor 1 (SLF1), tandem BRCT repeat, residues 1-199, with R50A; also called R50A-substituted SLF1^tBRCT; source: E. coli BL21 Rosetta (DE3), purified (same protocol as the wild type)
T5 sequence (looked up): T1 sequence (Q9BQI6 1-199) with R50A

[7] = target: T6, SLF1 tandem BRCT repeat (SLF1^tBRCT), residues 1-199, wild type (UniProt Q9BQI6 1-199); experiment: as above; conditions: both partners purified
T6 construct: SMC5/6 localization factor 1 (SLF1), tandem BRCT repeat at the N-terminus, residues 1-199; coding region optimized for E. coli and synthesized; also called WT; SMC5/6 localization factor 1 tBRCT; source: E. coli BL21 Rosetta (DE3), purified (Ni-NTA, heparin, gel filtration)
T6 sequence (looked up): T1 sequence (Q9BQI6 1-199)

## Rad18-pS442-4A: Rad18-pS442 peptide with I446A/I447A/L450A/L451A substitutions (SDSCNS[pS]SSDAARDAAE)
[1]
  binding to SLF1^tBRCT by ITC (in words): undetectable

## CC[C@H](C)[C@H](NC(=O)[C@H](CC(=O)O)NC(=O)[C@H](COP(=O)(O)O)NC(=O)[C@H](CO)NC(=O)[C@H](CO)NC(=O)[C@H](CO)NC(=O)[C@H](CC(N)=O)NC(=O)[C@H](CS)NC(=O)[C@H](CO)NC(=O)[C@H](CC(=O)O)NC(=O)[C@@H](N)CO)C(=O)N[C@H](C(=O)N[C@@H](CCCNC(=N)N)C(=O)N[C@@H](CC(=O)O)C(=O)N[C@@H](CC(C)C)C(=O)N[C@@H](CC(C)C)C(=O)N[C@@H](CCC(=O)O)C(=O)O)[C@@H](C)CC [Rad18-pS444] (H-SDSCNSSS[pS]DIIRDLLE-OH)
[1]
  Kd: 19700 ± 6460 nM

## Rad18-pS444 peptide (from UniProt Q9NS91 436-452)
[2]
  dH: -1.1 kcal/mol
  stoichiometry N: 1.28

## singularly phosphorylated Rad18-pS442 peptide (from UniProt Q9NS91 436-452)
[2]
  dH: -1.79 kcal/mol
  stoichiometry N: 1.13

## Rad18-NP: unphosphorylated Rad18 peptide of the Ser442/Ser444-containing region (SDSCNSSSSDIIRDLLE)
[1]
  binding to SLF1^tBRCT by ITC (in words): undetectable

## Rad18-pS442-2IA: Rad18-pS442 peptide with I446A/I447A substitution (SDSCNS[pS]SSDAARDLLE)
[1]
  binding to SLF1^tBRCT by ITC (in words): undetectable

## CC[C@H](C)[C@H](NC(=O)[C@H](CC(=O)O)NC(=O)[C@H](CO)NC(=O)[C@H](CO)NC(=O)[C@H](COP(=O)(O)O)NC(=O)[C@H](CO)NC(=O)[C@H](CC(N)=O)NC(=O)[C@H](CS)NC(=O)[C@H](CO)NC(=O)[C@H](CC(=O)O)NC(=O)[C@@H](N)CO)C(=O)N[C@H](C(=O)N[C@@H](CCCNC(=N)N)C(=O)N[C@@H](CC(=O)O)C(=O)N[C@@H](CC(C)C)C(=O)N[C@@H](CC(C)C)C(=O)N[C@@H](CCC(=O)O)C(=O)O)[C@@H](C)CC [Rad18-pS442] (H-SDSCNS[pS]SSDIIRDLLE-OH)
[1]
  Kd: 156 ± 5 nM

## CC[C@H](C)[C@H](NC(=O)[C@H](CC(=O)O)NC(=O)[C@H](COP(=O)(O)O)NC(=O)[C@H](CO)NC(=O)[C@H](COP(=O)(O)O)NC(=O)[C@H](CO)NC(=O)[C@H](CC(N)=O)NC(=O)[C@H](CS)NC(=O)[C@H](CO)NC(=O)[C@H](CC(=O)O)NC(=O)[C@@H](N)CO)C(=O)N[C@H](C(=O)N[C@@H](CCCNC(=N)N)C(=O)N[C@@H](CC(=O)O)C(=O)N[C@@H](CC(C)C)C(=O)N[C@@H](CC(C)C)C(=O)N[C@@H](CCC(=O)O)C(=O)O)[C@@H](C)CC [Rad18-2P] (H-SDSCNS[pS]S[pS]DIIRDLLE-OH)
[1]
  Kd: 15 ± 3 nM

B1: Rad18 peptide containing phosphorylated Ser442 and Ser444 (Rad18-2P) (peptide, UniProt Q9NS91 436-452, looked up)
peptide: SDSCNS[pS]S[pS]DIIRDLLE
notes: Rad18, human, Ser442/Ser444-containing region, residues 436-452; also called dually phosphorylated Rad18 peptide; source: synthetic peptide
[2]
  dH: -4.04 kcal/mol
  stoichiometry N: 1.28
[3]
  Kd: 116 nM
  dH: -5.07 kcal/mol
  stoichiometry N: 1.31
[4]
  Kd: 2210 nM
  dH: -0.86 kcal/mol
  stoichiometry N: 1.16
[5]
  Kd: 31 nM
  dH: -2.98 kcal/mol
  stoichiometry N: 1.21
[6]
  Kd: 160 nM
  dH: -3.82 kcal/mol
  stoichiometry N: 1.45

B2: Rad18-2P-N440A peptide (peptide, UniProt Q9NS91 436-452, looked up)
peptide: SDSCAS[pS]S[pS]DIIRDLLE
notes: Rad18, human, residues 436-452, with N440A; source: synthetic peptide
[7]
  Kd: 44 nM
  dH: -2.54 kcal/mol
  stoichiometry N: 1.76

B3: Rad18-2P-R448A peptide (peptide, UniProt Q9NS91 436-452, looked up)
peptide: SDSCNS[pS]S[pS]DIIADLLE
notes: Rad18, human, residues 436-452, with R448A; source: synthetic peptide
[7]
  Kd: 38 nM
  dH: -2.15 kcal/mol
  stoichiometry N: 1.63

B4: Rad18-2P-D449A peptide (peptide, UniProt Q9NS91 436-452, looked up)
peptide: SDSCNS[pS]S[pS]DIIRALLE
notes: Rad18, human, residues 436-452, with D449A; source: synthetic peptide
[7]
  Kd: 77 nM
  dH: -1.11 kcal/mol
  stoichiometry N: 1.52

B5: Rad18-pS442-2LA peptide (L450A/L451A) (peptide, UniProt Q9NS91 436-452, looked up)
peptide: SDSCNS[pS]SSDIIRDAAE
notes: Rad18, human, residues 436-452, with L450A/L451A; source: synthetic peptide
[7]
  Kd: 450 nM
  dH: -2.39 kcal/mol
  stoichiometry N: 1.67

## GAAYDI[pS]QVFPFAKKK (source: synthetic peptide) [BRCTide, phosphopeptide optimized for binding to the BRCA1 tBRCT]
[7]
  Kd: 27500 nM
  dH: -0.75 kcal/mol
  stoichiometry N: 1.12
